The source of these data is PMC5465497.

Test [1] addresses KiH (knobs-into-holes) Fc-like chain, second engineered CH3 domain (human). As to the kind of experiment: non-reduced SDS-PAGE with scanning densitometry of co-expressed chains (heterodimerization assay); two Fc-like chains co-transfected at a 1:1 ratio into HEK293-EBNA cells; Protein A-purified preparation; 4-12% gel, Coomassie staining; bands below the 49-kDa marker excluded.
The target of test [2] is MI (CH3) AG/GA Fc-like chain, GA domain (IgG1 CH3 with positions 85.1 and 86 and their set exchanged for IgA CH3 residues) (human). The description is as above.
Test [3] has as its target BEAT 2/3 (A): CH2 γ1 - BEAT CH3 (A) γ3; (B): CH2 γ1 - BEAT CH3 (B) γ1 D84.4Q (human). The experiment in a line: SPR; antibody covalently coupled onto a CM5 sensor chip, FcRn injected; HBS-EP+ adjusted to pH 6; room temperature; steady-state fitting model; regeneration with HBS-EP+ pH 7.4. Background: Surface plasmon resonance follows binding to a sensor surface in real time, without labels.

Test [4] addresses BEAT 2/3 (A): CH2 γ1 - BEAT CH3 (A) γ3; (B): CH2 γ1 - BEAT CH3 (B) γ1 (human). The test is described as above.
The target in test [5] is BEAT 2/3 (A): CH2 γ3 - BEAT CH3 (A) γ3; (B): CH2 γ1 - BEAT CH3 (B) γ1 (human). The test is described as above.
The target in test [6] is BEAT 2/3 (A): CH2 γ3 - BEAT CH3 (A) γ3; (B): CH2 γ1 - BEAT CH3 (B) γ1 D84.4Q (human). The test is described as above.
In test [7] the target is Herceptin IgG (human). The test is described as above.
Test [8] concerns the target BEAT 2/3 (A): CH2 γ1 - BEAT CH3 (A) γ3; (B): CH2 γ1 - BEAT CH3 (B) γ1 D84.4Q (human). As to the kind of experiment: SPR; antibody covalently coupled onto a CM5 sensor chip, Fc receptor extracellular domain injected; HBS-EP+ running buffer; room temperature; steady-state fitting model; no regeneration.
Test [9] deals with BEAT 2/3 (A): CH2 γ1 - BEAT CH3 (A) γ3; (B): CH2 γ1 - BEAT CH3 (B) γ1 (human). The description is as above.
Test [10] has as its target BEAT 2/3 (A): CH2 γ3 - BEAT CH3 (A) γ3; (B): CH2 γ1 - BEAT CH3 (B) γ1 D84.4Q (human). The description is as above.
For test [11], the target named is Herceptin IgG (human). Described as above.
For test [12], the target named is SEED Fc-like chain, the other SEED CH3 domain (human). The experiment in a line: non-reduced SDS-PAGE with scanning densitometry of co-expressed chains (heterodimerization assay); two Fc-like chains co-transfected at a 1:1 ratio into HEK293-EBNA cells; Protein A-purified preparation; 4-12% gel, Coomassie staining; bands below the 49-kDa marker excluded.
For test [13], the target named is Herceptin IgG (human). As to the kind of experiment: SPR; antibody captured via Protein A, FcγR1a injected; room temperature; 1:1 Langmuir model with Rmax set to local; regeneration with 10 mM glycine pH 1.5.

In the case of “KiH (knobs-into-holes) Fc-like chain, first engineered CH3 domain (domain or fragment)”, the heterodimer content in test [1] worked out at 67%.

For the substance “MI (CH3) AG/GA Fc-like chain, AG domain with Trp 81 back mutated to threonine (domain or fragment)”, the loss in HD rate against the heterodimer with Trp 81 in [2] is 4%.

As for “FcRn extracellular domain (with beta-2-microglobulin) (from UniProt P55899 24-297; P61769 21-119) (receptor)”, the Kd (usually the free concentration of one partner at which half of the binding sites on the other are occupied at equilibrium, for simple one-to-one binding) was 686 nM in test [3]; 708 nM in [4]; 543 nM in [5]; 577 nM in test [6]; 622 nM with Herceptin IgG (human) [7].

For “FcγR3a extracellular domain, variant V176 (from UniProt P08637 17-208) (receptor)”, the Kd in test [8] stood at 347 nM; in test [9] it was 206 nM; in test [10], 238 nM; with Herceptin IgG (human) [11] it was 267 nM.

“FcγR2a extracellular domain, variant H167 (from UniProt P12318 34-217) (receptor)” showed a Kd with Herceptin IgG (human) [11] of 2000 nM.

For “SEED Fc-like chain with Trp 81 back mutated to threonine (domain or fragment)”, the loss in HD rate against the heterodimer with Trp 81 in [12] was determined as 20%.

Take “SEED Fc-like chain, the SEED CH3 domain that has Trp 81 (domain or fragment)”: the heterodimer content in test [12] turned out to be 83%.

With “FcγR2b extracellular domain (from UniProt P31994 43-217) (receptor)”, the Kd with Herceptin IgG (human) [11] came to 4270 nM.

Take “FcγR1a extracellular domain (from UniProt P12314 16-292) (receptor)”: the Kd with Herceptin IgG (human) [13] was 0.138 nM.
